# Patent US20060189528A1 (EVOGENIX, published 2006)
# T1: RANKL (human, UniProt O14788 140-317, limits assumed)
# T1 construct: also called Rank ligand
# T1 sequence (looked up): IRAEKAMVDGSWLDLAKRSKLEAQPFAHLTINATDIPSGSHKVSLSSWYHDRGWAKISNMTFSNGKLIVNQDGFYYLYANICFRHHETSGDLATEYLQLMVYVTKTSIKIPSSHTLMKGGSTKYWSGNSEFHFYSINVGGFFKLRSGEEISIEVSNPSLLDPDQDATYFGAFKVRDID
# Legend:
# RANKL [1] = target: T1, RANKL; test: ELISA on coated RANKL, Fc-linked dimers; EC50 ratio to OPG(22-194).Fc wt; increase in binding (lower EC50)
# Experimental: (§1) Purified mammalian-expressed OVP proteins are tested for binding to RANKL and TRAIL by ELISA. Wells are coated with RANKL at 5 μg/mL or TRAIL at 10 μg/mL in PBS O/N at 4° C., rinsed with PBS, blocked with 0.5% casein in PBS at room temp for 2 h, then rinsed again with PBS. Concentrations of OVPs to be tested are normalised to around 10 nM and then 50 μL applied to the antigen-coated wells in serial doubling dilutions over 6-7 wells for 1 h. […] All washes in between binding incubations are 3 times in PBS/0.05% Tween, then 3 times with PBS. Detection of bound OVPs is achieved with incubation of 50 μL anti-FLAG at […] for 20 min then 50 μL goat anti-mouse-peroxidase conjugate (BioRad) at 1:1500 for 20 min. TMB is used as enzyme substrate and then binding signal is measured at A_{450 nm}.
# TRAIL = target: T2, TRAIL (human, UniProt P50591 114-281); test: ELISA on coated TRAIL, Fc-linked dimers; EC50 ratio to OPG(22-194).Fc wt; reduction in binding (higher EC50)
# T2 construct: also called TNF-related apoptosis inducing ligand; recombinant human TRAIL (R&D Systems)
# T2 sequence (P50591 114-281 limits assumed): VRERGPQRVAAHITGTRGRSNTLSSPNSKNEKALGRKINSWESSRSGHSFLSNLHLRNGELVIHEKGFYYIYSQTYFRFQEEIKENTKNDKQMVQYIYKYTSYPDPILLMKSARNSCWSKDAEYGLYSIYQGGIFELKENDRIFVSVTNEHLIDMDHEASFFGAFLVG
# Experimental: as §1
# RANKL [2] = target: T1, RANKL; test: ELISA on coated RANKL, Fc-linked dimers; EC50 ratio to OPG(22-194).Fc wt; reduction in binding (higher EC50)
# Experimental: as §1
Binder,RANKL fold change cf wt (RANKL [1]),TRAIL fold change cf wt (TRAIL),RANKL fold change cf wt (RANKL [2])
"OVP I115A (Fc fusion, Tested as C-terminal Fc-linked dimer with FLAG tag, from HEK 293 EBNA cells; signal peptide 1-21 processed; not shown: human Fc domain of vector pAPEX-3.Fc; C-terminal FLAG tag) ETFPPKYLHYDEETSHQLLCDKCPPGTYLKQHCTAKWKTVCAPCPDHYYTDSWHTSDECLYCSPVCKELQYVKQECNRTHNRVCECKEGRYLEAEFCLKHRSCPPGFGVVQAGTPERNTVCKRCPDGFFSNETSSKAPCRKHTNCSVFGLLLTQKGNATHDNICSGNSESTQK",2.25 fold,2.5 fold,–
"OVP I115M, L40S (Fc fusion, Tested as C-terminal Fc-linked dimer with FLAG tag, from HEK 293 EBNA cells; signal peptide 1-21 processed; also called R23; not shown: human Fc domain of vector pAPEX-3.Fc; C-terminal FLAG tag) ETFPPKYLHYDEETSHQLSCDKCPPGTYLKQHCTAKWKTVCAPCPDHYYTDSWHTSDECLYCSPVCKELQYVKQECNRTHNRVCECKEGRYLEMEFCLKHRSCPPGFGVVQAGTPERNTVCKRCPDGFFSNETSSKAPCRKHTNCSVFGLLLTQKGNATHDNICSGNSESTQK",1.1 fold,> 250 fold,–
"OVP I115M, R122Q (Fc fusion, Tested as C-terminal Fc-linked dimer with FLAG tag, from HEK 293 EBNA cells; signal peptide 1-21 processed; also called I115M plus: R122Q; not shown: human Fc domain of vector pAPEX-3.Fc; C-terminal FLAG tag) ETFPPKYLHYDEETSHQLLCDKCPPGTYLKQHCTAKWKTVCAPCPDHYYTDSWHTSDECLYCSPVCKELQYVKQECNRTHNRVCECKEGRYLEMEFCLKHQSCPPGFGVVQAGTPERNTVCKRCPDGFFSNETSSKAPCRKHTNCSVFGLLLTQKGNATHDNICSGNSESTQK",2.5 fold,3 fold,–
"OVP I115E (Fc fusion, Tested as C-terminal Fc-linked dimer with FLAG tag, from HEK 293 EBNA cells; signal peptide 1-21 processed; not shown: human Fc domain of vector pAPEX-3.Fc; C-terminal FLAG tag) ETFPPKYLHYDEETSHQLLCDKCPPGTYLKQHCTAKWKTVCAPCPDHYYTDSWHTSDECLYCSPVCKELQYVKQECNRTHNRVCECKEGRYLEEEFCLKHRSCPPGFGVVQAGTPERNTVCKRCPDGFFSNETSSKAPCRKHTNCSVFGLLLTQKGNATHDNICSGNSESTQK",–,> 250 fold,2.25 fold
"OVP I115W (Fc fusion, Tested as C-terminal Fc-linked dimer with FLAG tag, from HEK 293 EBNA cells; signal peptide 1-21 processed; not shown: human Fc domain of vector pAPEX-3.Fc; C-terminal FLAG tag) ETFPPKYLHYDEETSHQLLCDKCPPGTYLKQHCTAKWKTVCAPCPDHYYTDSWHTSDECLYCSPVCKELQYVKQECNRTHNRVCECKEGRYLEWEFCLKHRSCPPGFGVVQAGTPERNTVCKRCPDGFFSNETSSKAPCRKHTNCSVFGLLLTQKGNATHDNICSGNSESTQK",–,5 fold,1.4 fold
"OVP I115M, N139D (Fc fusion, Tested as C-terminal Fc-linked dimer with FLAG tag, from HEK 293 EBNA cells; signal peptide 1-21 processed; not shown: human Fc domain of vector pAPEX-3.Fc; C-terminal FLAG tag) ETFPPKYLHYDEETSHQLLCDKCPPGTYLKQHCTAKWKTVCAPCPDHYYTDSWHTSDECLYCSPVCKELQYVKQECNRTHNRVCECKEGRYLEMEFCLKHRSCPPGFGVVQAGTPERDTVCKRCPDGFFSNETSSKAPCRKHTNCSVFGLLLTQKGNATHDNICSGNSESTQK",–,60 fold,1.75 fold
"OVP I115T, K51R, R111H (Fc fusion, Tested as C-terminal Fc-linked dimer with FLAG tag, from HEK 293 EBNA cells; signal peptide 1-21 processed; not shown: human Fc domain of vector pAPEX-3.Fc; C-terminal FLAG tag) ETFPPKYLHYDEETSHQLLCDKCPPGTYLRQHCTAKWKTVCAPCPDHYYTDSWHTSDECLYCSPVCKELQYVKQECNRTHNRVCECKEGHYLETEFCLKHRSCPPGFGVVQAGTPERNTVCKRCPDGFFSNETSSKAPCRKHTNCSVFGLLLTQKGNATHDNICSGNSESTQK",1.5 fold,7.5 fold,–
"OVP I115T, K51R, S167G (Fc fusion, Tested as C-terminal Fc-linked dimer with FLAG tag, from HEK 293 EBNA cells; signal peptide 1-21 processed; not shown: human Fc domain of vector pAPEX-3.Fc; C-terminal FLAG tag) ETFPPKYLHYDEETSHQLLCDKCPPGTYLRQHCTAKWKTVCAPCPDHYYTDSWHTSDECLYCSPVCKELQYVKQECNRTHNRVCECKEGRYLETEFCLKHRSCPPGFGVVQAGTPERNTVCKRCPDGFFSNETSSKAPCRKHTNCGVFGLLLTQKGNATHDNICSGNSESTQK",1.5 fold,15 fold,–
"OVP I115V (Fc fusion, Tested as C-terminal Fc-linked dimer with FLAG tag, from HEK 293 EBNA cells; signal peptide 1-21 processed; not shown: human Fc domain of vector pAPEX-3.Fc; C-terminal FLAG tag) ETFPPKYLHYDEETSHQLLCDKCPPGTYLKQHCTAKWKTVCAPCPDHYYTDSWHTSDECLYCSPVCKELQYVKQECNRTHNRVCECKEGRYLEVEFCLKHRSCPPGFGVVQAGTPERNTVCKRCPDGFFSNETSSKAPCRKHTNCSVFGLLLTQKGNATHDNICSGNSESTQK",1.5 fold,4 fold,–
"OVP I115M, R122E (Fc fusion, Tested as C-terminal Fc-linked dimer with FLAG tag, from HEK 293 EBNA cells; signal peptide 1-21 processed; also called I115M plus: R122E; not shown: human Fc domain of vector pAPEX-3.Fc; C-terminal FLAG tag) ETFPPKYLHYDEETSHQLLCDKCPPGTYLKQHCTAKWKTVCAPCPDHYYTDSWHTSDECLYCSPVCKELQYVKQECNRTHNRVCECKEGRYLEMEFCLKHESCPPGFGVVQAGTPERNTVCKRCPDGFFSNETSSKAPCRKHTNCSVFGLLLTQKGNATHDNICSGNSESTQK",–,> 250 fold,1.2 fold

# The remaining lines, values ahead:
RANKL fold change cf wt (RANKL [1]),TRAIL fold change cf wt (TRAIL),RANKL fold change cf wt (RANKL [2]),Binder
1.75 fold,4.3 fold,–,"OVP I115L (Fc fusion, Tested as C-terminal Fc-linked dimer with FLAG tag, from HEK 293 EBNA cells; signal peptide 1-21 processed; not shown: human Fc domain of vector pAPEX-3.Fc; C-terminal FLAG tag) ETFPPKYLHYDEETSHQLLCDKCPPGTYLKQHCTAKWKTVCAPCPDHYYTDSWHTSDECLYCSPVCKELQYVKQECNRTHNRVCECKEGRYLELEFCLKHRSCPPGFGVVQAGTPERNTVCKRCPDGFFSNETSSKAPCRKHTNCSVFGLLLTQKGNATHDNICSGNSESTQK"
1.1 fold,3 fold,–,"OVP I115Y (Fc fusion, Tested as C-terminal Fc-linked dimer with FLAG tag, from HEK 293 EBNA cells; signal peptide 1-21 processed; not shown: human Fc domain of vector pAPEX-3.Fc; C-terminal FLAG tag) ETFPPKYLHYDEETSHQLLCDKCPPGTYLKQHCTAKWKTVCAPCPDHYYTDSWHTSDECLYCSPVCKELQYVKQECNRTHNRVCECKEGRYLEYEFCLKHRSCPPGFGVVQAGTPERNTVCKRCPDGFFSNETSSKAPCRKHTNCSVFGLLLTQKGNATHDNICSGNSESTQK"
1.2 fold,2 fold,–,"OVP I115M, F128A (Fc fusion, Tested as C-terminal Fc-linked dimer with FLAG tag, from HEK 293 EBNA cells; signal peptide 1-21 processed; also called I115M plus: F128A; not shown: human Fc domain of vector pAPEX-3.Fc; C-terminal FLAG tag) ETFPPKYLHYDEETSHQLLCDKCPPGTYLKQHCTAKWKTVCAPCPDHYYTDSWHTSDECLYCSPVCKELQYVKQECNRTHNRVCECKEGRYLEMEFCLKHRSCPPGAGVVQAGTPERNTVCKRCPDGFFSNETSSKAPCRKHTNCSVFGLLLTQKGNATHDNICSGNSESTQK"
1.2 fold,25 fold,–,"OVP I115M (Fc fusion, Ribosome display selected; tested as C-terminal Fc-linked dimer with FLAG tag, from HEK 293 EBNA cells; signal peptide 1-21 processed; also called 1R17; not shown: human Fc domain of vector pAPEX-3.Fc; C-terminal FLAG tag) ETFPPKYLHYDEETSHQLLCDKCPPGTYLKQHCTAKWKTVCAPCPDHYYTDSWHTSDECLYCSPVCKELQYVKQECNRTHNRVCECKEGRYLEMEFCLKHRSCPPGFGVVQAGTPERNTVCKRCPDGFFSNETSSKAPCRKHTNCSVFGLLLTQKGNATHDNICSGNSESTQK"
–,> 250 fold,1.1 fold,"OVP I115M, R122N (Fc fusion, Tested as C-terminal Fc-linked dimer with FLAG tag, from HEK 293 EBNA cells; signal peptide 1-21 processed; also called I115M plus: R122N; not shown: human Fc domain of vector pAPEX-3.Fc; C-terminal FLAG tag) ETFPPKYLHYDEETSHQLLCDKCPPGTYLKQHCTAKWKTVCAPCPDHYYTDSWHTSDECLYCSPVCKELQYVKQECNRTHNRVCECKEGRYLEMEFCLKHNSCPPGFGVVQAGTPERNTVCKRCPDGFFSNETSSKAPCRKHTNCSVFGLLLTQKGNATHDNICSGNSESTQK"
–,3.1 fold,1.4 fold,"OVP I115S (Fc fusion, Tested as C-terminal Fc-linked dimer with FLAG tag, from HEK 293 EBNA cells; signal peptide 1-21 processed; not shown: human Fc domain of vector pAPEX-3.Fc; C-terminal FLAG tag) ETFPPKYLHYDEETSHQLLCDKCPPGTYLKQHCTAKWKTVCAPCPDHYYTDSWHTSDECLYCSPVCKELQYVKQECNRTHNRVCECKEGRYLESEFCLKHRSCPPGFGVVQAGTPERNTVCKRCPDGFFSNETSSKAPCRKHTNCSVFGLLLTQKGNATHDNICSGNSESTQK"
–,7 fold,3.3 fold,"OVP I115M, F128T (Fc fusion, Tested as C-terminal Fc-linked dimer with FLAG tag, from HEK 293 EBNA cells; signal peptide 1-21 processed; also called I115M plus: F128T; not shown: human Fc domain of vector pAPEX-3.Fc; C-terminal FLAG tag) ETFPPKYLHYDEETSHQLLCDKCPPGTYLKQHCTAKWKTVCAPCPDHYYTDSWHTSDECLYCSPVCKELQYVKQECNRTHNRVCECKEGRYLEMEFCLKHRSCPPGTGVVQAGTPERNTVCKRCPDGFFSNETSSKAPCRKHTNCSVFGLLLTQKGNATHDNICSGNSESTQK"
1.5 fold,3.5 fold,–,"OVP I115M, R122S (Fc fusion, Tested as C-terminal Fc-linked dimer with FLAG tag, from HEK 293 EBNA cells; signal peptide 1-21 processed; also called I115M plus: R122S; not shown: human Fc domain of vector pAPEX-3.Fc; C-terminal FLAG tag) ETFPPKYLHYDEETSHQLLCDKCPPGTYLKQHCTAKWKTVCAPCPDHYYTDSWHTSDECLYCSPVCKELQYVKQECNRTHNRVCECKEGRYLEMEFCLKHSSCPPGFGVVQAGTPERNTVCKRCPDGFFSNETSSKAPCRKHTNCSVFGLLLTQKGNATHDNICSGNSESTQK"
1.5 fold,> 125 fold,–,"OVP I115D (Fc fusion, Tested as C-terminal Fc-linked dimer with FLAG tag, from HEK 293 EBNA cells; signal peptide 1-21 processed; not shown: human Fc domain of vector pAPEX-3.Fc; C-terminal FLAG tag) ETFPPKYLHYDEETSHQLLCDKCPPGTYLKQHCTAKWKTVCAPCPDHYYTDSWHTSDECLYCSPVCKELQYVKQECNRTHNRVCECKEGRYLEDEFCLKHRSCPPGFGVVQAGTPERNTVCKRCPDGFFSNETSSKAPCRKHTNCSVFGLLLTQKGNATHDNICSGNSESTQK"
–,23 fold,6 fold,"OVP I115M, R122D (Fc fusion, Tested as C-terminal Fc-linked dimer with FLAG tag, from HEK 293 EBNA cells; signal peptide 1-21 processed; also called I115M plus: R122D; not shown: human Fc domain of vector pAPEX-3.Fc; C-terminal FLAG tag) ETFPPKYLHYDEETSHQLLCDKCPPGTYLKQHCTAKWKTVCAPCPDHYYTDSWHTSDECLYCSPVCKELQYVKQECNRTHNRVCECKEGRYLEMEFCLKHDSCPPGFGVVQAGTPERNTVCKRCPDGFFSNETSSKAPCRKHTNCSVFGLLLTQKGNATHDNICSGNSESTQK"
